For the data set the following is noted: Saccharomyces cerevisiae (strain ATCC 204508 / S288c), DSC, reversible: yes; for Tm / unfolding enthalpy (calorimetric) / change of melting temperature, mutant - wild type (higher = more stable): pH 4.6, Thermal, Potassium acetate 0.1 M; for denaturant m value / denaturant midpoint (higher = more stable) / unfolding free energy / ddG of mutation (higher = less stable): pH 7, 22 °C, GdnHCl, Potassium phosphate 0.1 M.

The values below come from FireProtDB (doi:10.1021/bi00021a023).

As a reminder, the Tm is the temperature at which the thermal transition is half complete.

Sequence of Cytochrome c isoform 1 G12A|N58I, P00044 G12A N58I (P00044 whole entry G12A/N58I, canonical isoform): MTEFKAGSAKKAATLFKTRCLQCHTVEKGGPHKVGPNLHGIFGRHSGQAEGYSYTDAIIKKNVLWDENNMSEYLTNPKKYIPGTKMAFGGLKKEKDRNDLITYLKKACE
Sequence of Cytochrome c isoform 1 G12A, P00044 (P00044 whole entry G12A, canonical isoform): as the sequence (P00044 whole entry G12A/N58I, canonical isoform) above, with I58N counted along it
Sequence of Cytochrome c isoform 1 G12S|N58I, P00044 G12S N58I (P00044 whole entry G12S/N58I, canonical isoform): as the sequence (P00044 whole entry G12A/N58I, canonical isoform) above, with A12S counted along it
Sequence of Cytochrome c isoform 1 wild type, P00044 (P00044 whole entry, canonical isoform): as the sequence (P00044 whole entry G12A/N58I, canonical isoform) above, with A12G, I58N counted along it
Sequence of Cytochrome c isoform 1 N58I, P00044 (P00044 whole entry N58I, canonical isoform): as the sequence (P00044 whole entry G12A/N58I, canonical isoform) above, with A12G counted along it

For “Cytochrome c isoform 1 wild type, P00044”, the Tm is 49.2 °C, the “unfolding enthalpy (calorimetric)” value came out at 78.8 kcal/mol, the denaturant m value stood at 4.36 kcal/mol/M and the “denaturant midpoint (higher = more stable)” value (shortened to “denaturant midpoint”) is 1.34 M. For the same substance, the unfolding free energy was 5.86 kcal/mol.

For “Cytochrome c isoform 1 G12A|N58I, P00044 G12A N58I”, under “structure 1YCC”, the Tm turned out to be 47.4 °C; the “change of melting temperature, mutant - wild type (higher = more stable)” value is -1.8 °C; the “unfolding enthalpy (calorimetric)” value was 64.7 kcal/mol.

As to Cytochrome c isoform 1 N58I, P00044, for the setting “structure 1YCC”, the Tm was 62.2 °C; the “change of melting temperature, mutant - wild type (higher = more stable)” value worked out at 13 °C; the “unfolding enthalpy (calorimetric)” value stood at 101 kcal/mol.

Regarding “Cytochrome c isoform 1 G12S|N58I, P00044 G12S N58I”, where the note is “structure 1YCC”, the “ddG of mutation (higher = less stable)” value stood at 0.31 kcal/mol, the denaturant m value was found to be 4.75 kcal/mol/M, the “denaturant midpoint” value came out at 1.17 M and the unfolding free energy was 5.55 kcal/mol.

Consider Cytochrome c isoform 1 G12A, P00044, for which, where the note is “structure 1YCC”, the “ddG of mutation (higher = less stable)” value came out at 3.5 kcal/mol, the denaturant m value turned out to be 5.4 kcal/mol/M, the “denaturant midpoint” value turned out to be 0.44 M and the unfolding free energy came to 2.36 kcal/mol.
